Article PMC3275592, “Structural and Functional Insights into Endoglin Ligand Recognition and Binding” (PLoS ONE, 2012)
One block for each molecule: values may come before it.

T1: HG-EndoEC, full length extracellular region of human endoglin (residues 22-587), high glycosylation (human, UniProt P17813 22-587, mature, branched sugars (high glycosylation); putative Asn glycosylation sites Asn88, Asn102, Asn121, Asn134 and Asn307 (Asn306 in Figure 1))
T1 construct: endoglin, human, extracellular region, residues 22-587; EndoEC dimerized to some extent through a disulfide bond; also called endoglin ectodomain; source: HEK293 FreeStyle (HEK293F), transfected, secreted, purified (HisTrap, gel filtration)
T1 sequence (looked up): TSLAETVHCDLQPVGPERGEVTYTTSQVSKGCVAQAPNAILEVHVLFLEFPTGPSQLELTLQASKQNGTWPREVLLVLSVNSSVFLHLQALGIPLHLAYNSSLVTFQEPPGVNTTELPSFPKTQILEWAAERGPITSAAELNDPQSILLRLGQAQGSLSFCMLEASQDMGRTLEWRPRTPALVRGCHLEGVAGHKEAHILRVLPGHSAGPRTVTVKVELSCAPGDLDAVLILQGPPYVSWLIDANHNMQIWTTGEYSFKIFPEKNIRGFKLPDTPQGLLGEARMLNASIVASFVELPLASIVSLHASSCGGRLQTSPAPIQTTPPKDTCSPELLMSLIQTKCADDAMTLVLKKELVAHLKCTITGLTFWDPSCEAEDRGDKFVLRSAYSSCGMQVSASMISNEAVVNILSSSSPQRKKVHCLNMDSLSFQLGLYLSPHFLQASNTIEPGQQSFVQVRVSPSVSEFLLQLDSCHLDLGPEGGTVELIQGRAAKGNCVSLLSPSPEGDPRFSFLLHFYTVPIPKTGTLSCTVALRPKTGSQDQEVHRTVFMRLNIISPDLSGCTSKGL

T2: Endo338, endoglin orphan domain construct (residues 22-337) (human, UniProt P17813 22-337, Man5NAG2 glycans (5 modelled at their attachment sites))
T2 construct: also called Endoglin338; OD; source: HEK293S GnTI- suspension cells, transfected, secreted, purified (HisTrap, gel filtration); not shown: 6xHis, C-terminal, kept
T2 sequence (looked up): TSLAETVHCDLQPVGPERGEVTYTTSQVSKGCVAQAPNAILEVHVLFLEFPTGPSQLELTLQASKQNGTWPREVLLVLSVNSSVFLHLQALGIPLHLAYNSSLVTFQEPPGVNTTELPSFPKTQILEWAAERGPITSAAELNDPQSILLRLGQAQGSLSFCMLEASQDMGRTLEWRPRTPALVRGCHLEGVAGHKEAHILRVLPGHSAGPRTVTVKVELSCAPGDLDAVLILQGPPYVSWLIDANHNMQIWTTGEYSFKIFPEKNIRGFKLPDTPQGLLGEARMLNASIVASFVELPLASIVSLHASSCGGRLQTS

B1: LG-EndoEC, full length extracellular region of human endoglin (residues 22-587), low glycosylation (domain or fragment, UniProt P17813 22-587, looked up)
chain: T1 sequence (looked up)
modifications: short, well defined sugars of the type Man5NAG2 (low glycosylation); putative Asn glycosylation sites Asn88, Asn102, Asn121, Asn134 and Asn307 (Asn306 in Figure 1)
notes: endoglin, human, extracellular region, residues 22-587; Dimeric and monomeric species seen on gels; also called endoglin ectodomain; source: HEK293S GnTI- suspension cells, transfected, secreted, purified (HisTrap, gel filtration); not shown: 6xHis, C-terminal, kept
B2: Bone morphogenetic protein 9 (BMP-9) (ligand, human, UniProt Q9UK05 320-429, looked up)
chain: SAGAGSHCQKTSLRVNFEDIGWDSWIIAPKEYEAYECKGGCFFPLADDVTPTKHAIVQTLVHLKFPTKVGKACCVPTKLSPISVLYKDDMGVPTLKYHYEGMSVAECGCR
notes: BMP-9, human, carrier-free protein from R&D Systems; Immobilised on a CM5 chip by amine coupling; also called Bone Morphogenetic Protein (BMP)-9; source: bought: R&D Systems (carrier free)

Tests used:
[1] = biological target: Bone morphogenetic protein 9 (BMP-9) (human) (UniProt Q9UK05); assay: SPR; Biacore T100; BMP-9 immobilised on CM5 chip by amine coupling; analyte alone at six concentrations 12.5-400 nM; 25°C; 10 mM HEPES pH 7.4, 150 mM NaCl, 3 mM EDTA, 0.05% P20; 1:1 binding model, global fit; apparent KD; triplicates
[2] = biological target: Endo362, endoglin orphan domain construct with the linker region (residues 22-361 or 22-362) (human) (UniProt P17813); assay: SDS-PAGE under reducing and non-reducing conditions with anti-His6 western blot; 10% SDS gel, 0.5 µg protein; with or without 10 mM DTT (1 h, 65°C); boiled at 95°C for 5 min; disulfide-linked dimer
[3] = biological target: the molecule itself; assay: as above
[4] = biological target: T1, HG-EndoEC, full length extracellular …; assay: SPR; Biacore T100; endoglin coinjected with a constant saturating concentration of HG-ALK1EC over immobilised BMP-9; 25°C; 10 mM HEPES pH 7.4, 150 mM NaCl, 3 mM EDTA, 0.05% P20; 1:1 binding model; conditions: both partners purified
[5] = biological target: B1; assay: as above; conditions: both partners purified
[6] = biological target: T1, HG-EndoEC, full length extracellular …; assay: SPR; Biacore T100; BMP-9 immobilised on CM5 chip by amine coupling; analyte alone at six concentrations 12.5-400 nM; 25°C; 10 mM HEPES pH 7.4, 150 mM NaCl, 3 mM EDTA, 0.05% P20; 1:1 binding model, global fit; apparent KD; triplicates; conditions: both partners purified
[7] = biological target: B1; assay: as above; conditions: both partners purified
[8] = biological target: T2, Endo338, endoglin orphan domain …; assay: as above; conditions: both partners purified

Kd [1]: 8.96 nM | koff [1]: 0.00108 s⁻¹ | kon [1]: 120000 M⁻¹ s⁻¹ | stoichiometry N [2]: 2
Molecule: Endo362, endoglin orphan domain construct with the linker region (residues 22-361 or 22-362) (from UniProt P17813 22-361) (domain or fragment)

Molecule: B1
stoichiometry N [3]: 2

Molecule: B2
Kd [4]: 14.7 nM | koff [4]: 0.00153 s⁻¹ | kon [4]: 274000 M⁻¹ s⁻¹ | Kd [5]: 3.27 nM | koff [5]: 0.000925 s⁻¹ | kon [5]: 283000 M⁻¹ s⁻¹ | Kd [6]: 9.94 nM | koff [6]: 0.00207 s⁻¹ | kon [6]: 208000 M⁻¹ s⁻¹ | Kd [7]: 2.01 nM | koff [7]: 0.000891 s⁻¹ | kon [7]: 442000 M⁻¹ s⁻¹ | Kd [8]: 276 nM | koff [8]: 0.254 s⁻¹ | kon [8]: 914000 M⁻¹ s⁻¹
